Data published in PMC4552671.

Target: Urokinase plasminogen activator surface receptor (uPAR) on metastatic KHOS osteosarcoma cells (human (endogenous in KHOS)) (UniProt Q03405)
Sequence of UniProt Q03405 (Q03405 other isoform, or with tags, fused parts or gaps): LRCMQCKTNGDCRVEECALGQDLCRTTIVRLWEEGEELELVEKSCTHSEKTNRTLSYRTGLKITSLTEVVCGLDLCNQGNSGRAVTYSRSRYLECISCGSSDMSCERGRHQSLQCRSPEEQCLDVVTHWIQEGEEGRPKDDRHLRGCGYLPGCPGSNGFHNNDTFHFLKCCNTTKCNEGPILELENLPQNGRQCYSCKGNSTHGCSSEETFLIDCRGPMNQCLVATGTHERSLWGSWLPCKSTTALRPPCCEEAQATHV

An increase in migration of metastatic KHOS cells over basal level (Transwell, 24 h) with 0.5 and 1.0 ug/mL rh-uPA of 166% was found for “recombinant human urokinase plasminogen activator (rh-uPA), high molecular weight form” in this work.
